According to US20110300138A1 (published 2011):

Assays:
TSHR260-AP (human) [1] = assay: TSHR260-AP bridge ELISA (full length TSHR on wells, TSHR260-AP in solution); IgG 100 µg/mL diluted in HBD serum
[2] = target: TSHR260-alkaline phosphatase (TSHR260-AP) (human) (UniProt P05187); assay: TSHR260-AP bridge ELISA, full length TSHR on wells; 0.01 µg/mL, diluted in assay buffer
[3] = target: human TSHR (wild type, full length) expressed in CHO cells (human) (UniProt P16473); assay: cell-based or functional assay
TSHR260-AP (human) [4] = assay: TSHR260-AP bridge ELISA (full length TSHR on wells, TSHR260-AP in solution); IgG 10 µg/mL diluted in assay buffer
TSHR260-AP (human) [5] = assay: TSHR260-AP bridge ELISA (full length TSHR on wells, TSHR260-AP in solution); IgG 0.005 µg/mL diluted in assay buffer
[6] = target: TSHR260-alkaline phosphatase (TSHR260-AP) (human) (UniProt P05187); assay: TSHR260-AP bridge ELISA, full length TSHR on wells; 250 µg/mL, diluted in HBD
TSHR260-AP (human) [7] = assay: TSHR260-AP bridge ELISA (full length TSHR on wells, TSHR260-AP in solution); IgG 0.1 µg/mL diluted in HBD serum
[8] = target: human TSH receptor (full length, wild type) expressed in CHO cells (human) (UniProt P16473); assay: cell-based or functional assay
TSHR260-AP (human) [9] = assay: TSHR260-AP bridge ELISA (full length TSHR on wells, TSHR260-AP in solution); IgG 0.01 µg/mL diluted in HBD serum
[10] = target: human TSHR (thyroid stimulating hormone receptor) expressed in transfected CHO cells (human) (UniProt P16473); assay: cell-based or functional assay
[11] = target: human TSH receptor (wild type), expressed on transfected CHO cells (human) (UniProt P16473); assay: cell-based or functional assay

B1: 5C9 IgG (antibody, from another filing, V domains shown)
VH: EVQLVESGGGLIQPGGSLRLSCAASGFTVSSNYMSWVRQAPGKGLEWVSVTYSGGSTSYADSVKGRFTISRDNSKNTLYLQMNSLRAEDTAVYYCARGGRYCSSISCYARSGCDYWGQGTLVTVSS
VL: AIQMTQSPSSLSASVGDRVTITCRASQSISNYLNWYQQKPGKAPKLLIYAASSLQSGVPSRFSGSGSGTDFTLTISSLQPEDFATYYCQQSYSSPSTTFGQGTKLEIK
Mean absorbance at 405 nm (absorbance at 405 nm) (TSHR260-AP (human) [1]): 0.027 | Mean absorbance at 405 nm (absorbance at 405 nm) [2]: -0.001 | % Inhibition of T13 serum stimulation; 100 µg/mL 5C9 IgG [3]: 97.5% | % Inhibition of T14 serum stimulation; 100 µg/mL 5C9 IgG [3]: 94.9% | % Inhibition of T15 serum stimulation; 100 µg/mL 5C9 IgG [3]: 96.9% | Cyclic AMP concentration; 100 µg/mL 5C9 IgG alone [3]: 0.9 pmol/mL | Cyclic AMP concentration; HBD + 100 µg/mL 5C9 IgG [3]: 1 pmol/mL | Cyclic AMP concentration; T13 serum + 100 µg/mL 5C9 IgG [3]: 1.2 pmol/mL | Cyclic AMP concentration; T14 serum + 100 µg/mL 5C9 IgG [3]: 1.4 pmol/mL | Cyclic AMP concentration; T15 serum + 100 µg/mL 5C9 IgG [3]: 1.6 pmol/mL | Mean absorbance at 405 nm (absorbance at 405 nm) (TSHR260-AP (human) [4]): 0.099 | Mean absorbance at 405 nm (absorbance at 405 nm) (TSHR260-AP (human) [5]): -0.009 | Mean absorbance at 405 nm (absorbance at 405 nm) [6]: 0.058 | Mean absorbance at 405 nm (absorbance at 405 nm) (TSHR260-AP (human) [7]): -0.005 | % Inhibition; T7 serum + 100 µg/mL 5C9 IgG [8]: 97.7% | % Inhibition; T8 serum + 100 µg/mL 5C9 IgG [8]: 97.9% | % Inhibition; T9 serum + 100 µg/mL 5C9 IgG [8]: 94.7% | Cyclic AMP concentration; HBD + 100 µg/mL 5C9 IgG [8]: 2.7 pmol/mL | Cyclic AMP concentration; T7 serum + 100 µg/mL 5C9 IgG [8]: 2.1 pmol/mL | Cyclic AMP concentration; T8 serum + 100 µg/mL 5C9 IgG [8]: 1.8 pmol/mL | Cyclic AMP concentration; T9 serum + 100 µg/mL 5C9 IgG [8]: 3 pmol/mL | Mean absorbance at 405 nm (absorbance at 405 nm) (TSHR260-AP (human) [9]): 0.017 | % Inhibition; 3 ng/mL M22 IgG + 0.001 µg/mL 5C9 IgG [10]: 7.7% | % Inhibition; 3 ng/mL M22 IgG + 0.01 µg/mL 5C9 IgG [10]: 25.2% | % Inhibition; 3 ng/mL M22 IgG + 0.1 µg/mL 5C9 IgG [10]: 92.8% | % Inhibition; 3 ng/mL M22 IgG + 1 µg/mL 5C9 IgG [10]: 97.1% | % Inhibition; 3 ng/mL M22 IgG + 10 µg/mL 5C9 IgG [10]: 94.4% | % Inhibition; 3 ng/mL M22 IgG + 100 µg/mL 5C9 IgG [10]: 97.1% | Cyclic AMP concentration; 3 ng/mL M22 IgG + 0.001 µg/mL 5C9 IgG [10]: 41 pmol/mL | Cyclic AMP concentration; 3 ng/mL M22 IgG + 0.01 µg/mL 5C9 IgG [10]: 33.2 pmol/mL | Cyclic AMP concentration; 3 ng/mL M22 IgG + 0.1 µg/mL 5C9 IgG [10]: 3.2 pmol/mL | Cyclic AMP concentration; 3 ng/mL M22 IgG + 1 µg/mL 5C9 IgG [10]: 1.3 pmol/mL | Cyclic AMP concentration; 3 ng/mL M22 IgG + 10 µg/mL 5C9 IgG [10]: 2.5 pmol/mL | Cyclic AMP concentration; 3 ng/mL M22 IgG + 100 µg/mL 5C9 IgG [10]: 1.3 pmol/mL | Cyclic AMP concentration; 100 µg/mL 5C9 IgG [10]: 1.7 pmol/mL | % Inhibition (constitutive activity); 0.1 µg/mL 5C9 IgG [11]: 0% | % Inhibition (constitutive activity); 0.2 µg/mL 5C9 IgG [11]: 0% | % Inhibition (constitutive activity); 1 µg/mL 5C9 IgG [11]: 45.9% | % Inhibition (constitutive activity); 2 µg/mL 5C9 IgG [11]: 45.3% | % Inhibition; 5C9 IgG 0.01 µg/mL + T11 [11]: 4.3% | % Inhibition; 5C9 IgG 0.1 µg/mL + T11 [11]: 19.8% | % Inhibition; 5C9 IgG 1 µg/mL + T11 [11]: 23% | % Inhibition; 5C9 IgG 10 µg/mL + T11 [11]: 13.9% | % Inhibition; 5C9 IgG 100 µg/mL + T11 [11]: 11.1% | % Inhibition; pTSH 3 ng/mL + 0.001 µg/mL 5C9 [11]: 0.2% | % Inhibition; pTSH 3 ng/mL + 0.01 µg/mL 5C9 [11]: 0% | % Inhibition; pTSH 3 ng/mL + 0.1 µg/mL 5C9 [11]: 78.7% | % Inhibition; pTSH 3 ng/mL + 1 µg/mL 5C9 [11]: 93.5% | % Inhibition; pTSH 3 ng/mL + 10 µg/mL 5C9 [11]: 98% | % Inhibition; pTSH 3 ng/mL + 100 µg/mL 5C9 [11]: 99.2% | Cyclic AMP concentration; 100 µg/mL 5C9 alone [11]: 0.2 pmol/mL | Cyclic AMP concentration; 5C9 IgG 0.01 µg/mL + T11 [11]: 24.1 pmol/mL | Cyclic AMP concentration; 5C9 IgG 0.1 µg/mL + T11 [11]: 20.2 pmol/mL | Cyclic AMP concentration; 5C9 IgG 1 µg/mL + T11 [11]: 19.4 pmol/mL | Cyclic AMP concentration; 5C9 IgG 10 µg/mL + T11 [11]: 21.7 pmol/mL | Cyclic AMP concentration; 5C9 IgG 100 µg/mL + T11 [11]: 22.4 pmol/mL | Cyclic AMP concentration; 5C9 IgG 100 µg/mL alone [11]: 0.9 pmol/mL | Cyclic AMP concentration; pTSH 3 ng/mL + 0.001 µg/mL 5C9 [11]: 64.1 pmol/mL
